Assay results: US20240034757A1 (OXFORD UNIVERSITY INNOVATION, published 2024)

Tests used:
Assay in all cases: BLI
[1] = molecular target: T1, CCL16_HUMAN (human, UniProt O15467 24-120)
T1 sequence: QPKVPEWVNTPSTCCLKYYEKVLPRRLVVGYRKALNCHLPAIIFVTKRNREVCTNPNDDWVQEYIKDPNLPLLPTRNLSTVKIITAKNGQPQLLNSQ

[2] = molecular target: T2, CCL17_HUMAN (human, UniProt Q92583 24-94)
T2 sequence: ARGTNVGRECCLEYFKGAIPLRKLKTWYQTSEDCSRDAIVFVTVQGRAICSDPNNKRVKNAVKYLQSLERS

[3] = molecular target: T3, CCL18_HUMAN (human, UniProt P55774 21-89)
T3 sequence: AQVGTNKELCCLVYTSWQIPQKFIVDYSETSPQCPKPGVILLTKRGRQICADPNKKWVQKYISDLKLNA

[4] = molecular target: CCL20_HUMAN (human, UniProt P78556 27-96)
[5] = molecular target: T4, CCL27_HUMAN (human, UniProt Q9Y4X3 25-112)
T4 sequence: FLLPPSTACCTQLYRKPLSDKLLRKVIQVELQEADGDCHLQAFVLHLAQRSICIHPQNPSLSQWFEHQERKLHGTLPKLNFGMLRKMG

[6] = molecular target: T5, CCL3L1_HUMAN (human, UniProt P16619 24-93)
T5 sequence: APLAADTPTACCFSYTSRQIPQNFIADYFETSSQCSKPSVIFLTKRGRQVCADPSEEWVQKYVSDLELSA

[7] = molecular target: T6, CXCL1_HUMAN (human, UniProt P09341 35-107)
T6 sequence: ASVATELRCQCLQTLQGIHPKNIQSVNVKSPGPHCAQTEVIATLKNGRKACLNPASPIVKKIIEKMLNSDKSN

[8] = molecular target: T7, CXCL3_HUMAN (human, UniProt P19876 35-107)
T7 sequence: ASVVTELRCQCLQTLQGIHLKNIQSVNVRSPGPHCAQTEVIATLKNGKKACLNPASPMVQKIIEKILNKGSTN

[9] = molecular target: T8, CXCL7_HUMAN (human, UniProt P02775 59-128)
T8 sequence: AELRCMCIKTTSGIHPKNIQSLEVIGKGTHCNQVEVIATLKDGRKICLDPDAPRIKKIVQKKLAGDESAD

[10] = molecular target: T9, CXCL8_HUMAN (human, UniProt P10145 28-99)
T9 sequence: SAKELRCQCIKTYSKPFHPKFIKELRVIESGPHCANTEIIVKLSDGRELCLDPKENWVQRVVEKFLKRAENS

[11] = molecular target: T10, CXCL9_HUMAN (human, UniProt Q07325 23-125)
T10 sequence: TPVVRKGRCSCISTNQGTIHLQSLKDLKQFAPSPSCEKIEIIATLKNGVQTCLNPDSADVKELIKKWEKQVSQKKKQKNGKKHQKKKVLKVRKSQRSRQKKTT

[12] = molecular target: T11, CXCL10_HUMAN (human, UniProt P02778 22-98)
T11 sequence: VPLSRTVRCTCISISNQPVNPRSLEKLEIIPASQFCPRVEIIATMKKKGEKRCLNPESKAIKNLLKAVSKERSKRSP

[13] = molecular target: T12, CXCL11_HUMAN (human, UniProt O14625 22-94)
T12 sequence: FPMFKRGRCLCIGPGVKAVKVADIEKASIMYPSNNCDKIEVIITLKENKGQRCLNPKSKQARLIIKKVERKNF

[14] = molecular target: CXCL12_HUMAN (human, UniProt P48061 22-89)
[15] = molecular target: T13, CXCL2_HUMAN (human, UniProt P19875 35-107)
T13 sequence: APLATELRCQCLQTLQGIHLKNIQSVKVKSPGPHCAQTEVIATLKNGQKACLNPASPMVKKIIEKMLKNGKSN

[16] = molecular target: T14, CXCL4_HUMAN (human, UniProt P02776 32-101)
T14 sequence: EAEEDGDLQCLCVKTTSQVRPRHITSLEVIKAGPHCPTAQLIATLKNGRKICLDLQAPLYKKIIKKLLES

[17] = molecular target: T15, CXCL5_HUMAN (human, UniProt P42830 41-114)
T15 sequence: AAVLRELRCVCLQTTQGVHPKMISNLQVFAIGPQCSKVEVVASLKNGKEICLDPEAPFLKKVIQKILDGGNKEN

[18] = molecular target: T16, CXCL6_HUMAN (human, UniProt P80162 38-114)
T16 sequence: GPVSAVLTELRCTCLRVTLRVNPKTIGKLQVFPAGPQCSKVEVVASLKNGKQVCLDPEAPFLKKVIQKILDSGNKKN

[19] = molecular target: T17, CXCL13_HUMAN (human, UniProt O43927 23-109)
T17 sequence: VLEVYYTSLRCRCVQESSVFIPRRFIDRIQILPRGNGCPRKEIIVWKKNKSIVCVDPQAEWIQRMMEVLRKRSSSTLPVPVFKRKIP

[20] = molecular target: T18, CXCL14_HUMAN (human, UniProt O95715 35-111)
T18 sequence: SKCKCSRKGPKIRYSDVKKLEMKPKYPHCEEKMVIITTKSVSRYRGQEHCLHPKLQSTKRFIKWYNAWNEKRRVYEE

Sequence of CCL20_HUMAN (P78556 27-96 limits assumed): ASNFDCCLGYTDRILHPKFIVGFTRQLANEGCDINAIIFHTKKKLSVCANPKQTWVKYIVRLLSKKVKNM
Sequence of CXCL12_HUMAN (P48061 22-89 limits assumed): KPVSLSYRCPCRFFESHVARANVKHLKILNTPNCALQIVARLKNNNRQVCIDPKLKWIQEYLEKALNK

B1: P1156:G4S:P991 (designed binder)
chain: ADDDNELFTVQYCGMNCTKDEGGTWTGCTGKKEGCKCYHESGKNYGLCLSTEYTDFSQYGNPSDSEIEAAKPKRSDTLSHGGGGSENGEGTTQPDYDNSTDYYNYEDFKCTCPAPHLNNTNGTVMKPIGCYYTCNVTRCTAPDTYPCYNLTEHQAKNLTTSPTTLCAVGNCDHGICVPNGTKELCFKAPNLEE
notes: also called two-warhead evasin
Kd [1]: 0.503 nM | RT [1]: 92.5 min | Kd [2]: 7.44 nM | RT [2]: 8.6 min | Kd [3]: 0.201 nM | RT [3]: 182 min | binding result [4]: no binding | Kd [5]: 36.2 nM | RT [5]: 3.4 min | Kd [6]: 3.09 nM | RT [6]: 34.7 min | Kd [7]: 2.72 nM | RT [7]: 30.3 min | Kd [8]: 61.4 nM | RT [8]: 3.61 min | binding result [9]: no binding | Kd [10]: 1.5 nM | RT [10]: 71.3 min | binding result [11]: no binding | binding result [12]: no binding | binding result [13]: no binding | binding result [14]: no binding | RT [15]: 2.89 min | binding result [16]: no binding | RT [17]: 3.08 min | binding result [18]: no binding | binding result [19]: no binding | binding result [20]: no binding

B2: P991:G4S:P1156 (designed binder)
chain: ENGEGTTQPDYDNSTDYYNYEDFKCTCPAPHLNNTNGTVMKPIGCYYTCNVTRCTAPDTYPCYNLTEHQAKNLTTSPTTLCAVGNCDHGICVPNGTKELCFKAPNLEEGGGGSADDDNELFTVQYCGMNCTKDEGGTWTGCTGKKEGCKCYHESGKNYGLCLSTEYTDFSQYGNPSDSEIEAAKPKRSDTLSH
Kd [1]: 0.636 nM | RT [1]: 72.4 min | Kd [2]: 5.8 nM | RT [2]: 11.6 min | Kd [3]: 0.143 nM | RT [3]: 293 min | binding result [4]: no binding | Kd [5]: 42.6 nM | RT [5]: 2.91 min | Kd [6]: 2.91 nM | RT [6]: 43.8 min | Kd [7]: 5.08 nM | RT [7]: 21 min | Kd [8]: 89.9 nM | RT [8]: 3.28 min | binding result [9]: no binding | Kd [10]: 3.56 nM | RT [10]: 36.8 min | binding result [11]: no binding | binding result [12]: no binding | binding result [13]: no binding | binding result [14]: no binding | RT [15]: 2.32 min | binding result [16]: no binding | RT [17]: 2.32 min | binding result [18]: no binding | binding result [19]: no binding | binding result [20]: no binding
